Assay results from paper doi:10.1101/2025.06.18.660498 (bioRxiv, 2025).

T1: AF9 YEATS domain (1-138) (human, UniProt P42568 1-138)
T1 sequence (looked up): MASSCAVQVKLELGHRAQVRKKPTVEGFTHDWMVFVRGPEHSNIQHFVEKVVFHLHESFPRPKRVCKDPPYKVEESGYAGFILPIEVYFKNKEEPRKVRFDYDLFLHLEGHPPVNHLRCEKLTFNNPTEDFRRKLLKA

T2: AF9 YEATS domain F59Y (human, UniProt P42568 1-138, F59Y)
T2 sequence (looked up): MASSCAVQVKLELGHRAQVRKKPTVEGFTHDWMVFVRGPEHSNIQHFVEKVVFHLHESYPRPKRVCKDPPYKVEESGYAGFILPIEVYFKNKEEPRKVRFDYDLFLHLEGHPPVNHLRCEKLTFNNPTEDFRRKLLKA

T3: AF9-F28R YEATS domain (1-138) (human, UniProt P42568 1-138, F28R)
T3 sequence (looked up): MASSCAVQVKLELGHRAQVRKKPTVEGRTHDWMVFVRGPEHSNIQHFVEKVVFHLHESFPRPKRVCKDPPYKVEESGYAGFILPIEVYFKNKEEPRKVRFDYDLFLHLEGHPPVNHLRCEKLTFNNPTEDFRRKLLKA


Key:
AF9 YEATS domain (1-138) = target: T1, AF9 YEATS domain (1-138); assay: ITC
AF9 YEATS domain F59Y = target: T2, AF9 YEATS domain F59Y; assay: ITC
[1] = target: T3, AF9-F28R YEATS domain (1-138); assay: crystal structure

| Molecule | Kd (AF9 YEATS domain (1-138)) [µM] | fold reduction of affinity against WT AF9 YEATS (AF9 YEATS domain F59Y) [fold] | binding result [1] |
| --- | --- | --- | --- |
| H3K18la peptide | 172 |  |  |
| H3K9ac peptide (ITC) | 4.6 |  |  |
| ARTKQTARKS (lactyl-lysine (L-lactylation) at K9) [H3K9la peptide (ITC)] | 74.4 | 2 |  |
| ARTKQTARKS (peptide, UniProt P68431 2-11, looked up, lactyl-lysine (L-lactylation) at K9) [H3_(1-10)K9la peptide] |  |  | binds |
